Data published in PMC7406314.

Target: ARPC1A-STREP (human) (UniProt Q92747)
Assay: co-purification of a co-expressed recombinant complex; Arp2/3-C1A complexes with ARPC5, ARPC5L or hybrids co-expressed in Sf21 cells and purified as previously described (Abella et al., 2016); Coomassie-stained gel, band quantification with Fiji normalised to ARPC2; immunoblot of the purified complexes

Sequence of ARPC5L (Q9BPX5 whole entry): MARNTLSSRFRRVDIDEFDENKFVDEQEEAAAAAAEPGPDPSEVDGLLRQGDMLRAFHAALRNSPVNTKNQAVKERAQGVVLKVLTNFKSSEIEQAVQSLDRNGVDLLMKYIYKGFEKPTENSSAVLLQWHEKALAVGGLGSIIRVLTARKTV
Sequence of UniProt Q92747 (Q92747 whole entry): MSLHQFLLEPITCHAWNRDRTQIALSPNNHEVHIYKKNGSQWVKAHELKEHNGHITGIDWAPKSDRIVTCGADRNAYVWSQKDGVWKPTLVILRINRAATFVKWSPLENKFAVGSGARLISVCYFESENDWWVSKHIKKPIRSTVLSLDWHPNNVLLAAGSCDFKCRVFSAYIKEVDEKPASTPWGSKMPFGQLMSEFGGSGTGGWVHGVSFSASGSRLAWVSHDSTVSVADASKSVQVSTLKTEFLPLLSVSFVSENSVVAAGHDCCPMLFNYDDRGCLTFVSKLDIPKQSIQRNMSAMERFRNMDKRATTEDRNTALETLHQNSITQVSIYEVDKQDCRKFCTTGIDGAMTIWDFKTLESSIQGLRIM

ARPC5L (from UniProt Q9BPX5 1-153) (natural protein)
gel band ratio to ARPC2 in the purified Arp2/3-C1A complex (subunit occupancy): 0.52
